Measured values published in patent US20200407673A1, “DEVICE, KIT AND METHOD FOR THREE-DIMENSIONAL CELL CULTURE” (RIGENERAND S.R.L., priority 2018, published 2020).

System: luciferase positive tumor cells
Experiment: efficacy of sTRAIL on luciferase-positive tumor cells grown in the three-dimensional culture device, luciferin light signal
Assay type: cell-based
Conditions: cells grown 72 hours in the device, then 24 hours of treatment; luciferin substrate, luminometer
Method: In the culture device 1 the tumor cells “C” which are luciferase-positive are grown for 72 hours and it is possible to monitor the extent of the growth and estimate the number of tumor cells “C” grown inside the culture device 1 by adding the luciferin substrate and detecting the light signal, as shown in the diagram in FIG. 20.
The effectiveness of the sTRAIL biological agent, which is added to the culture medium and is loaded inside the culture device 1, is tested on the tumor mass inside the culture device 1 evaluated at 72 hours.
The efficacy of the treatment is determined after 24 hours by adding the luciferin substrate which is metabolized by the viable tumor cells “C” by the action of the luciferase.
Since the cells “C” that are dead or in apoptosis no longer produce the enzyme, they cannot metabolize the substrate and, consequently, they are no longer able to generate a light signal.

B1: sTRAIL: soluble TNF-related antitumor biological agent apoptosis-inducing ligand; biological cytotoxic agent (protein, UniProt P50591 39-281, looked up)
extracellular domain: TNELKQMQDKYSKSGIACFLKEDDSYWDPNDEESMNSPCWQVKWQLRQLVRKMILRTSEETISTVQEKQQNISPLVRERGPQRVAAHITGTRGRSNTLSSPNSKNEKALGRKINSWESSRSGHSFLSNLHLRNGELVIHEKGFYYIYSQTYFRFQEEIKENTKNDKQMVQYIYKYTSYPDPILLMKSARNSCWSKDAEYGLYSIYQGGIFELKENDRIFVSVTNEHLIDMDHEASFFGAFLVG
modifications: extracellular domain soluble form
  light signal (RLUs, proportional to viable cells) after treatment: light signal is reduced in intensity
